Experimental findings from US20230357384A1 (NEXTCURE, published 2023) are described below.

Assay [1] deals with T1, human FLRT3 on cells (human, UniProt Q9NZU0 29-649).
T1 construct: also called hFLRT3
T1 sequence: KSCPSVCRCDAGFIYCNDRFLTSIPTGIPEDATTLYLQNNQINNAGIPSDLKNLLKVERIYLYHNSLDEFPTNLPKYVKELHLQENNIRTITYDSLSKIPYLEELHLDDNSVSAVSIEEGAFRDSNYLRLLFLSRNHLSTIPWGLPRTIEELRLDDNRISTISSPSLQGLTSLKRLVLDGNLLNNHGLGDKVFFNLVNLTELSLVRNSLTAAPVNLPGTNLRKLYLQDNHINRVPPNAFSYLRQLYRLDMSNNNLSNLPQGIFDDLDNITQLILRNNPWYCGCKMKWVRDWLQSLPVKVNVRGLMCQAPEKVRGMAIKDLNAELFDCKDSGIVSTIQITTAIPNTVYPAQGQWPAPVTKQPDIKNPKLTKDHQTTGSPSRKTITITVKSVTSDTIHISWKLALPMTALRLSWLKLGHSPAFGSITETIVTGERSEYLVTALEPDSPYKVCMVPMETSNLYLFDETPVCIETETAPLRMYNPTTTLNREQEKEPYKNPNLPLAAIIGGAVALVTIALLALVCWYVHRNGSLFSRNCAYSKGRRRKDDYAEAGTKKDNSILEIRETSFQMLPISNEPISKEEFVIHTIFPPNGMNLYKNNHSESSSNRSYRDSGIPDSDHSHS
In words: flow cytometry on 293T cells transfected with human FLRT3, normalised MFI, non-linear fit. From the text: (§1) MFI values of each group were normalized within that group- i.e. largest value 100% and smallest value 0%.
On the technique in general: In flow cytometry, cells or beads pass a laser one at a time.

Assay [2] addresses T1, human FLRT3 on cells. Briefly: flow cytometry on A549 cells (endogenous hFLRT3), normalised MFI, non-linear fit. The protocol:
(§2) Increasing concentrations of FLRT3 antibodies bound to A549 cells that express endogenous hFLRT3 (FIG. 19). Binding curves for the top three antibodies were performed (FIG. 20A). MFI values of each group were normalized within that group- i.e. largest value 100% and smallest value 0% (FIG. 20A). EC50 values were calculated based on non-linear regression fit (FIG. 20B).

Assay [3] has as its target T2, FLRT3 (antigen of the binning assay of Table 2) (Homo sapiens (Human), UniProt Q9NZU0 29-528, limits assumed).
T2 construct: the whole entry for FLRT3 is named
T2 sequence: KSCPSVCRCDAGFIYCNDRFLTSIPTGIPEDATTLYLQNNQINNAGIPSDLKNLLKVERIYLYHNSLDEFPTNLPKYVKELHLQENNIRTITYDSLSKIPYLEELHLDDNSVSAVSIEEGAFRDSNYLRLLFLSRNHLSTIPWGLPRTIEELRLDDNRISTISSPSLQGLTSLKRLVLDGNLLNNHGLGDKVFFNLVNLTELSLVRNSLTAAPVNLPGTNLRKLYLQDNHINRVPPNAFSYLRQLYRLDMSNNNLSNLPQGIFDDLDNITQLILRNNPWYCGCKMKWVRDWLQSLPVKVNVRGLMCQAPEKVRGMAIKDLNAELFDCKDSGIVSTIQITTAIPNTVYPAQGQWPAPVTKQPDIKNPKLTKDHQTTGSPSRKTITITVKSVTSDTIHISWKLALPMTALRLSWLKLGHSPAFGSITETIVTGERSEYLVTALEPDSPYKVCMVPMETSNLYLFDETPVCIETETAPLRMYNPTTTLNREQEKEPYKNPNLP
Briefly: antibody binning matrix (Table 2); competitor: 5C2.

Assay [4] has as its target T2, FLRT3 (antigen of the binning assay of …). In words: antibody binning matrix (Table 2); competitor: 1H5.
Assay [5] shares this target. In words: antibody binning matrix (Table 2); row '1X Kinetic' (no first antibody), column antibody taken as binder.
The target of assay [6] is T3, FLRT3-His monomeric fusion protein (Homo sapiens (Human), UniProt Q9NZU0 29-528).
T3 construct: also called FLRT3 monomer; not shown: His tag
T3 sequence: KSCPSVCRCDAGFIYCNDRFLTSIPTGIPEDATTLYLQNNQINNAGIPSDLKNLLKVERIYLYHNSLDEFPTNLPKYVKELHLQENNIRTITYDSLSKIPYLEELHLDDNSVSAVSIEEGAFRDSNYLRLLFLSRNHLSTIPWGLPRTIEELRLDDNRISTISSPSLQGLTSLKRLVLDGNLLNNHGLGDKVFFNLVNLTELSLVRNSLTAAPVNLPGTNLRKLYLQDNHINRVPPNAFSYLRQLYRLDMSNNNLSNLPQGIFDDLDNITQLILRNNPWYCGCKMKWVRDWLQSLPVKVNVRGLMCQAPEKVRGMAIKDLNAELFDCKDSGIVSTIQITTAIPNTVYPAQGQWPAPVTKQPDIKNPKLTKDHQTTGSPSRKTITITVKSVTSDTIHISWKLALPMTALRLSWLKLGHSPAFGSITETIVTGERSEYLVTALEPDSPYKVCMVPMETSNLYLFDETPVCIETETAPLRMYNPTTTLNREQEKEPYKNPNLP
Briefly: kinetic affinity measurement with FLRT3-His monomer (Table 1).

In assay [7] the target is T1, human FLRT3 on cells. Briefly: flow cytometry on 293T cells transfected with human FLRT3, normalised MFI, non-linear fit; Exp 2.
Source text: as §1

Assay [8] deals with T2, FLRT3 (antigen of the binning assay of …). In words: antibody binning matrix (Table 2); competitor: 14B7.
Assay [9] concerns the target T1, human FLRT3 on cells. In words: flow cytometry on A549 cells (endogenous hFLRT3), normalised MFI, non-linear fit. The protocol: as §2
This is another data set of the same source.

Assay [10] addresses T2, FLRT3 (antigen of the binning assay of …). Briefly: antibody binning matrix (Table 2); competitor: 2F7.
For assay [11] the target is unchanged. In words: antibody binning matrix (Table 2); competitor: 14D3.
Assay [12] has as its target T1, human FLRT3 on cells. Briefly: flow cytometry on 293T cells transfected with human FLRT3, normalised MFI, non-linear fit; Exp 1.
Source text: as §1

The next assay has as its target T4, FLRT3-Fc (Homo sapiens (Human), UniProt Q9NZU0 29-528, biotin label in Example 8 (site not stated)).
T4 construct: also called FLRT3-Fc biotin; soluble FLRT3; not shown: Fc part
T4 sequence: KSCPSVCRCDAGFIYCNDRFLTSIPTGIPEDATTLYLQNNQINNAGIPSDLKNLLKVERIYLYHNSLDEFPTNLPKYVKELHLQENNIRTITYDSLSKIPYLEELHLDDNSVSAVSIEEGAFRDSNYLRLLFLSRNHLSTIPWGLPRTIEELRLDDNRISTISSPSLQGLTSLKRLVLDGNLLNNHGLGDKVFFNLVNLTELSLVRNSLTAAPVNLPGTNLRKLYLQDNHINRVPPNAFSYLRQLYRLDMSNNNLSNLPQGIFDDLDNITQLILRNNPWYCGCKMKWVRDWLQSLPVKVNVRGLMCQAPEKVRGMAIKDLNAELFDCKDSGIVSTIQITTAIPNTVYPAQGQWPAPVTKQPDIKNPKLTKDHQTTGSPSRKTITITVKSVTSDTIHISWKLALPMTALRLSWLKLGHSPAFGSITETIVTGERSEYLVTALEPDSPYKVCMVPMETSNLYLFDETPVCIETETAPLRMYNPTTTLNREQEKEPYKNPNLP
In words: competition ELISA: FLRT3-Fc biotin binding to coated Unc5B-Fc with titrated antibody. The protocol: The FLRT3 antibodies were tested for their ability to block FLRT3-Unc5B interaction in ELISA assays (FIG. 14A). The binding of FLRT3-Fc biotin to Unc5B-Fc was confirmed in the absence of blocking mAbs (FIG. 14B).
For orientation: ELISA stands for enzyme-linked immunosorbent assay.

Assay [13] addresses T2, FLRT3 (antigen of the binning assay of …). Briefly: antibody binning matrix (Table 2); competitor: 15G11.

B1: 14B7 (antibody, V domains shown)
VH: QVQLQQSGPELVKPGASVNISCKASGYAFGNSWMNWVKQRPGKGLEWIGWIYPGDGNANYNGKFKGKATLTADKSSSTAYMQLSSLTSEDSAVYFCARALYDYDGWFAYWGQGTLVTVSA
VL: DIQMNQSPSSLSASLGDTITIACRASQNIDIWLSWYQQKPGSIPKLLIYKASNLHTGVPSRFSGSGSGTDFTLTISSLQPEDIATYYCLQGQSFPFTFGSGTKLEIK
notes: Variable domains only; also called FLRT3 mAb 14B7; antibody 14B7
For orientation: EC50 means the concentration at which the effect is half-maximal. A word on the Kd: it is the constant that tells how readily two partners part at equilibrium. As usually defined, the koff is the rate constant with which the complex falls apart. A word on the kon: it is the second-order rate constant of association. A lower kon goes with slower complex formation. B1: the EC50 with human FLRT3 on cells [1] was less than 1.5 nM; in the assay with human FLRT3 on cells [2], 0.29 nM; with human FLRT3 on cells [7], 1.35 nM; with human FLRT3 on cells [9] it was less than 1 nM; with human FLRT3 on cells [12], 1.41 nM. Moreover, the “binning response (no name or unit printed)” value in [3] came out at 0.0014; in assay [4], 0.671; in [5] it was 1.73; in [8], 0.0294; in assay [10] it was 0.771; in [11], 0.621. Moreover, the “binning response (no name or unit printed)” value in assay [13] amounted to 1.07. Further, the Kd in assay [6] was 0.349 nM. In assay [6], this molecule registered a koff of 0.000138 s⁻¹. For the same molecule, in [6], the kon was found to be 436000 M⁻¹ s⁻¹. Besides, the “IC50 (read off the curve)” value with FLRT3-Fc was roughly 2 µg/mL.
